Laboratory results reported in patent US20040254099A1, “Compounds and methods for modulating beta-catenin mediated gene expression” (Adherex Technologies, Inc., priority 1999, published 2004).

Tested on: retinoic acid receptor
Experiment: Retinoic acid receptor dependent transactivation (retinoic acid β promoter-luciferase reporter)
Format: cell-based
Details: MCF-7 breast cancer cells transfected with reporter plasmid and wild-type or stable (S37A) mutant β-catenin; 9-cis retinoic acid, various doses, 48 hours
Description: FIG. 1 is a histogram depicting the enhancement of retinoic acid receptor-dependent transactivation by β-catenin. Luciferase activity, shown in relative light units, is illustrated for MCF-7 breast cancer cells transfected with the retinoic acid β promoter-luciferase reporter plasmid and a wild-type or a stable (S37A) mutant form of β-catenin (or vector alone, as a control) and treated with the indicated doses of 9-cis retinoic acid for 48 hours.
MCF-7 breast cancer cells were transfected with the retinoic acid β promoter-luciferase reporter plasmid and a wild-type or a stable (S37A) mutant form of β-catenin (see Orford et al., J. Biol. Chem. 272:24735-24738, 1997), and treated with various doses of 9-cis retinoic acid for 48 hours. The results, presented in FIG. 1, illustrate the activity of the reporter, measured in relative light units.

activity of the reporter (luciferase activity, relative light units): augment the activity of the reporter
B1: β-catenin: cytoplasmic protein, expressed in cells by transfection as wild-type or stable (S37A) mutant form (protein, UniProt P35222 2-781, looked up)
Catenin beta-1: ATQADLMELDMAMEPDRKAAVSHWQQQSYLDSGIHSGATTTAPSLSGKGNPEEEDVDTSQVLYEWEQGFSQSFTQEQVADIDGQYAMTRAQRVRAAMFPETLDEGMQIPSTQFDAAHPTNVQRLAEPSQMLKHAVVNLINYQDDAELATRAIPELTKLLNDEDQVVVNKAAVMVHQLSKKEASRHAIMRSPQMVSAIVRTMQNTNDVETARCTAGTLHNLSHHREGLLAIFKSGGIPALVKMLGSPVDSVLFYAITTLHNLLLHQEGAKMAVRLAGGLQKMVALLNKTNVKFLAITTDCLQILAYGNQESKLIILASGGPQALVNIMRTYTYEKLLWTTSRVLKVLSVCSSNKPAIVEAGGMQALGLHLTDPSQRLVQNCLWTLRNLSDAATKQEGMEGLLGTLVQLLGSDDINVVTCAAGILSNLTCNNYKNKMMVCQVGGIEALVRTVLRAGDREDITEPAICALRHLTSRHQEAEMAQNAVRLHYGLPVVVKLLHPPSHWPLIKATVGLIRNLALCPANHAPLREQGAIPRLVQLLVRAHQDTQRRTSMGGTQQQFVEGVRMEEIVEGCTGALHILARDVHNRIVIRGLNTIPLFVQLLYSPIENIQRVAAGVLCELAQDKEAAEAIEAEGATAPLTELLHSRNEGVATYAAAVLFRMSEDKPQDYKKRLSVELTSSLFRTEPMAWNETADLGLDIGAQGEPLGYRQDDPSYRSFHSGGYGQDALGMDPMMEHEMGGHHPGADYPVDGLPDLGHAQDLMDGLPPGDSNQLAWFDTDL
